In article PMC10868436 one finds Kd data, which are given here for two molecules.

The assay deals with consensus sphingomyelinase. As to the kind of experiment: BLI; ForteBio Octet RED96, […]; 1:1 binding model, […]; triplicate. (Biolayer interferometry detects binding as a change in optical thickness at a sensor tip.)

B1: TPL0674_03_A04 (scFv, V domains shown)
VH: QVQLVQSGSELKKPGASVKVSCKASGYTFTSYAMNWVRQAPGQGLEWMGWINTNTGNPTYAQGFTGRFVFSLDTSVSTAYLQISSLKAEDTAVYYCARDQGGDRHFGYWGQGTTVTVSS
VL: QSELTQPPSASGTPGQRVTISCSGSSSNIGSHRVNWYQQLPGTAPKLLIYSNYHRPAGVPDRFSASKSGTSASLAISGLQSEDEADYYCAAWDDSLNGYVFGTGTQLTVL
On to B1, for which the Kd (in general, the equilibrium constant for the complex coming apart) is 31.5 nM.

B2: TPL0674_03_F05 (scFv, V domains shown)
VH: EVQLVQSGAEVKKPGASVRVSCKASGYSITNYGISWVRQAPGQGLEWMGWINTYNGNTNYAQKFQGRVTMTRDTSISTAYMELSRLRSDDTAVYYCARDHPYRGMDVWGQGTLVTVSS
VL: SYELTQDPAVSVALGQTVRITCQGDSLRSYYASWYQQKPGQAPVLVIYGKNNRPSGIPDRFSGSSSGNTASLTITGAQAEDEADYYCNSRDSSGNHPHVVFGGGTKLTVL
B2 showed a Kd of 60.2 nM.
